{
  "source": "patent US20120172306A1",
  "about": "“Use of HASF as a Protective Agent Against Ischemic Tissue Damage” (Duke University, priority 2009, published 2012)",
  "molecules": {"B1": {"name": "HASF: Hypoxia regulated Akt MSC Factor, secreted protein encoded by C3orf58; recombinant human protein without N-signal sequence, SEQ ID NO:1 or 2 (protein, UniProt Q8NDZ4 36-430, looked up)", "Divergent protein kinase …": "LASWQRNELTDRRFLQLNKCPACFGTSWCRRFLNGQVVFEAWGRLRLLDFLNVKNVYFAQYGEPREGGRRRVVLKRLGSQRELAQLDQSICKRATGRPRCDLLQAMPRTEFARLNGDVRLLTPEAVEGWSDLVHCPSQRLLDRLVRRYAETKDSGSFLLRNLKDSERMQLLLTLAFNPEPLVLQSFPSDEGWPFAKYLGACGRMVAVNYVGEELWSYFNAPWEKRVDLAWQLMEIAEQLTNNDFEFALYLLDVSFDNFAVGPRDGKVIIVDAENVLVADKRLIRQNKPENWDVWYESKFDDCDKEACLSFSKEILCARATVDHNYYAVCQNLLSRHATWRGTSGGLLHDPPSEIAKDGRLEALLDECANPKKRYGRFQAAKELREYLAQLSNNVR", "modifications": "6xHis tag"}},
  "key": {"adult rat cardiomyocytes [1]": {"system": "adult rat cardiomyocytes", "test": "Caspase-Glo 9 and 3/7 assays of H2O2 induced apoptosis", "format": "cell-based", "conditions": "10 nM for 30 min, 100 μM H2O2, 5 h", "protocol": "FIGS. 2B and 2C are bar graphs showing relative caspase activity. Adult rat cardiomyocytes were freshly isolated and treated ±10 nM of HASF for 30 min, and then challenged with 100 μM of H2O2 for various time points. H2O2 induced apoptosis in cardiomyocytes was evidenced by the dynamic increase in the activities of the initiator Caspase 9 and effector Caspase […] at 5 h, 7 h and 9 h respectively. Y axis represent the relative amount of luminescence indicating the relative amount of active Caspase activities. ** P<0.01 and *** P<0.001. Data are presented as means±standard deviation of triplicates.\nFIG. 3C is a bar graph showing fold-change in caspase activity. Serum-starved adult rat cardiomyocytes were treated with 3 μM PKC inhibitors or vehicle DMSO for 30 minutes, then 100 nM HASF recombinant protein was added for 30 minutes followed by treatment with 200 μM H2O2 for 3 hours. Apoptosis was determined by detection of Caspase-9 activity using a homogeneous luminescent assay. All samples were measured in triplicates. *P<0.05 vs. non-HASF treated cells.\nFIG. 4C is a bar graph showing relative caspase activity in adult cardiomyocytes. Apoptosis as determined by detection of Caspase-9 activity on adult rat cardiomyocytes pre-treated with 178 μM PKC translocation inhibitor peptide for 10 minutes and then with 100 nM of HASF for 30 minutes. Thereafter, cells were challenged with 200 μM H2O2 for 3 hours. All samples were measured in triplicates. *P <0.05 vs. non-HASF treated cells and the experiment was repeated multiple times.\nAdult rat ventricular cardiomyocytes were isolated from 6 weeks old female Sprague-Dawley rat (Harlan World Headquarters, Indianapolis, Ill., USA) hearts by enzymatic digestion and were seeded in (6-well) plates or Delta T culture dishes (Bioptechs, Inc., Pa.) pre-coated with 1 μg/cm2 of laminin (Sigma) at 5×10^4/well and cultured overnight in serum-free M199 medium (Sigma), supplemented with 2 mM of L-carnitine, 5 mM of creatine, 5 mM of taurine, 0.2% of albumin, 100 U/ml of penicillin and 100 μg/ml of streptomycin. […]"}, "adult rat cardiomyocytes [2]": {"system": "adult rat cardiomyocytes", "test": "Mitochondrial permeability transition pore (mPTP) channel opening after hypoxia/reoxygenation", "format": "cell-based", "conditions": "HASF (100 nM) prior to hypoxia/reoxygenation, vs control untreated samples", "protocol": "FIG. 2D is a series of photomicrographs and a bar graph showing that HASF protects from mPTP channel opening and cell death after ischemia and reperfusion. Adult rat cardiac myocytes were cold-loaded with fluorescent calcein and CoCl2 and subjected to 3-5 h of ischemia followed by 30-60 min reperfusion. Mitochrondria were counterstained with TMRM. Under these conditions increased calcein intensity (green) indicate the entrapped calcein in mitochrondria which is due to reduction of open mPTP channels. Upper panel: Representative images of cells subjected to 3 h ischemia, 60 min reperfusion and cells treated with 100 nM HASF prior to 3 h ischemia, 60 min reperfusion. Lower panel: Quantitative fluorescence analysis of images represented above. The percentage of Calcein intensity was normalized to mitotracker, mitochondrial, intensity and the value was inverted and presented as of mPTP channel opening. Data are presented as means±stdev of values estimated from 8 images per condition.\nFIG. 4D is a bar graph and a photomicrograph showing the effect of recombinant protein, HASF on mPTP channel as imaged by confocal microscopy. […] The presence of PKCepsilon inhibitor peptide caused the opening of the mPTP channel as observed by decreased (quenched) calcein intensity. The bar graph depicts measured fluorescence of calcein versus mitotracker intensity under different conditions. […]"}},
  "data": [
    {"molecule": "B1", "values": [
      {"measurement": "reduction of Caspase 3/7", "setting": "adult rat cardiomyocytes [1]", "result": "~45", "unit": "%"},
      {"measurement": "reduction of Caspase 9", "setting": "adult rat cardiomyocytes [1]", "result": "~38", "unit": "%"},
      {"measurement": "mPTP channel opening", "setting": "adult rat cardiomyocytes [2]", "result": "reduced compared to control untreated samples"}
    ]}
  ]
}
